Measured values as given in patent US20170119790A1, “Agents, Uses and Methods” (CYTOGUIDE A/S, priority 2009, published 2017).

How the values were obtained:
[1] = biological target: T1, CD163 transfected Flp-In CHO cells (Homo sapiens, UniProt Q86VB7); assay: Cellular binding and uptake (endocytosis) of 125I-labeled anti-CD163; assay type: cell-based
T1 construct: Stably transfected Chinese hamster ovary (CHO) cells expressing the full-length human CD163; expressed in transfected cells
Method: Monocytes were isolated from PBMC by negative selection using magnetic beads from Dynal (Dynabeads® MyPure™ Monocyte Kit 2; Invitrogen A/S, Taastrup, Denmark) according to instructions provided by the manufacturer. Monocyte preparations were more than 95% (CD14^+) pure determined by flow cytometry. The isolated cells were washed twice with phosphate-buffered saline. Monocyte-derived macrophages (MDMs) were prepared by cell culture of monocytes (approximately 1×10^7 cells) for 4 days in 5% CO2 and 37° C. in RPMI 1640 media (RPMI 1640+25 mM HEPES+I-glutamine) (Invitrogen Corporation, Carlsbad, Calif., USA) with 20% FCS containing 100 ng/ml of M-CSF. MDMs were then detached from the flask by incubation with cell dissociation buffer (Invitrogen A/S, Taastrup, Denmark) for 30 minutes at 4 °C, then flushed, and scraped. The cells were then cultured for 24 hours in RPMI 1640 media (RPMI 1640+25 mM HEPES+I-glutamine) (Invitrogen Corporation, Carlsbad, Calif., USA) supplemented with 20% FCS containing 100 ng/ml of M-CSF at 37° C. in 95% air and 5% CO2 in Lab-Tek™ Chamber Slides (Thermo Fisher Scientific, Roskilde, Denmark). 200 nM dexamethasone (Merck KGaA, Darmstadt, Germany) was added during culture to increase CD163 expression. Stably transfected Chinese hamster ovary (CHO) cells expressing the full-length human CD163, as described above, were cultured in serum-free CHO medium (HyQ-CCM, HyClone, Logan, Utah) containing 300 μg/ml Hygromycin B, as previously described (2).
Endocytosis of ^125I-labeled anti-CD163 was investigated in CD163 transfected Flp-In Chinese hamster ovary (CHO) cells and mock-transfected Flp-In as described (Madsen, M., Moller, H. J., Nielsen, M. J., Jacobsen, C., Graversen, J. H., van den Berg, T. and Moestrup, S. K. (2004) Molecular characterization of the haptoglobin.hemoglobin receptor CD163. Ligand binding properties of the scavenger receptor cysteine-rich domain region. J. Biol. Chem., 279, 51561-51567.)

[2] = biological target: T2, CD163 on peripheral blood dendritic cells (Homo sapiens, UniProt Q86VB7); assay: Flow cytometry of CD163 expression on peripheral blood dendritic cells; assay type: cell-based
T2 construct: Freshly drawn peripheral whole blood samples or PBMC; endogenous in cells; host or cells: human peripheral blood monocytes, blood dendritic cells, monocyte-derived macrophages (healthy donors, buffy coats)
Description: Freshly drawn peripheral whole blood samples (approx. 3×10^6 cells) were stained with isotype-matched control antibody (Mouse IgG1 PE, k isotype control, MOPC-21, BD Pharmingen™, San Diego, Calif., USA) or a relevant antibody (anti-CD3 FITC, UCHT1, BD Biosciences, San Diego, Calif., USA; anti-CD11c FITC, KB90, DAKO A/S, Glostrup, Denmark; anti-CD14 FITC, RM052, 10Tests®, Beckman and Coulter, Marseille, France; anti-CD16 FITC, 3G8, BD Biosciences, San Diego, Calif., USA; anti-CD19 FITC, SJ25C1, BD Biosciences, San Diego, Calif., USA; anti-CD20 FITC, CAT 13.6E12, Diatec.com A/S, Oslo, Norway; anti-CD56 FITC, NCAM16.2, BD Biosciences, San Diego, Calif., USA; anti-CD91 FITC, A2MR-a2, BD Biosciences, San Diego, Calif.; anti-HLA-DR FITC, EDU-1, Diatec.com A/S, Oslo, Norway; anti-CD163 PE, MAC2-158, IQ Products, Groningen, The Netherlands; anti-CD163 PE, GHI/61, BD Biosciences, CA, USA; anti-ILT3/CD85k PE-Cy5, ZM3.8, IOTests®, Beckman and Coulter, Marseille, France; anti-HLA-DR PerCP, L234, BD Biosciences, San Diego, Calif.; anti-CD4 APC, EDU-2, Diatec.com A/S, Oslo, Norway; anti-CD14 APC, 18D11, Diatec.com A/S, Oslo, Norway) for 15 minutes at room temperature in the dark. […] For CD163 density quantitation, flow cytometric estimation of antibodies bound/cell (ABCs) was performed using Quantibrite PE beads (Becton Dickinson, San Jose, Calif., USA) as recommended by the manufacturer. […]

T1 sequence (Q86VB7 42-1156): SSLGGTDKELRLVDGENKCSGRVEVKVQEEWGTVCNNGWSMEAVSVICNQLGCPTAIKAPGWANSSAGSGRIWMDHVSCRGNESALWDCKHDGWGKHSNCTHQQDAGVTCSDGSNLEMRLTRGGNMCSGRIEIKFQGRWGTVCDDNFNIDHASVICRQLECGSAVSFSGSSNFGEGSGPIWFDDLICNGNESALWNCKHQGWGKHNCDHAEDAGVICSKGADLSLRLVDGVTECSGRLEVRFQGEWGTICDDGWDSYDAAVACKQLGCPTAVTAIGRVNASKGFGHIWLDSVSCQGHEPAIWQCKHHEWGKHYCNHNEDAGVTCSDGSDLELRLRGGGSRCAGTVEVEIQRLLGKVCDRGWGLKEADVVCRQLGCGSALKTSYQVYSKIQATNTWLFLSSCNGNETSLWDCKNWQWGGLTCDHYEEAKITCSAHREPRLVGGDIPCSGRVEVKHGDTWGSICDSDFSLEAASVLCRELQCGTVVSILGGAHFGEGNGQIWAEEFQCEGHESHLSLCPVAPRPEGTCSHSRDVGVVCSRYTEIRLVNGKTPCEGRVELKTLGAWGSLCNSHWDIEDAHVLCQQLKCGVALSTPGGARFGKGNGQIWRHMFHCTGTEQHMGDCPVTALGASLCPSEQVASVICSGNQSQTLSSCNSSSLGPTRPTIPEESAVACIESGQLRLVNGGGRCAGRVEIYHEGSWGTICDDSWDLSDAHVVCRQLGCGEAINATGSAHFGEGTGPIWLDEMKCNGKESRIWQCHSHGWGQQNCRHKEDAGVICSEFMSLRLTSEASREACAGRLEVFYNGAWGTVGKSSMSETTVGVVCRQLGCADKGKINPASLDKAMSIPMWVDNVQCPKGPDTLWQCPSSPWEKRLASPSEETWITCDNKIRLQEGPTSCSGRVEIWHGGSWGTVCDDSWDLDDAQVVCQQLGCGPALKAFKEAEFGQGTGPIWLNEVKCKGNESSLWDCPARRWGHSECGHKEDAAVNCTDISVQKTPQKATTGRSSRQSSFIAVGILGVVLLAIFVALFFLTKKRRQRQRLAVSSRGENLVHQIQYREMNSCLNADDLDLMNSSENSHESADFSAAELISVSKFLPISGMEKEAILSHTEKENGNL
T2 sequence (Q86VB7 42-1156): as above

B1: MAC2-158: anti-human CD163 murine mAb, binds SRCR domain 1, IQ Products; VH SEQ ID NO: 1, VL SEQ ID NO: 2 (antibody, V domains shown)
VH: DVQLQESGPGLVKPSQSLSLTCTVTGYSITSDYAWNWIRQFPGNKLEWMGYITYSGITNYNPSLKSQISITRDTSKNQFFLQLNSVTTEDTATYYCVSGTYYFDYWGQGTTLTVSS
VL: SVVMTQTPKSLLISIGDRVTITCKASQSVSSDVAWFQQKPGQSPKPLIYYASNRYTGVPDRFTGSGYGTDFTFTISSVQAEDLAVYFCGQDYTSPRTFGGGTKLEIKRA
modifications: Mac2-158 VH; Mac2-158 VL
time course of cell-associated radioactivity (bound or internalized) ([1]; 125I-labelled mAb, increasing time points): did not reach a plateau
percentage of cell-associated radioactivity reached ([1]; 125I-labelled mAb, stable CD163 transfected Flp-In CHO cells): 61.27%
cellular uptake and binding to CD163-expressing cells ([1]; compared with the other tested antibodies, FIG. 5): considerably higher
fraction of peripheral blood dendritic cells recognized (CD163 expressing) ([2]; CD14-ILT3+HLA-DR+ cells, whole blood): 32.3%
MFI, reflecting the amount of CD163 receptors per cell ([2]; peripheral blood dendritic cells): 107.5
